# Laboratory results: patent publication US20190352341 (published 2019)
# Where two headings read alike, the source gives them in different places. Square brackets hold non-standard residues; d marks the D form. Ends that are not written are not given here. Met(O) = CS(=O)CC[C@H](N)C(=O)O; pS = N[C@@H](COP(=O)(O)O)C(=O)O
# Legend:
# HSC70 [1] = molecular target: T1, HSC70 (bovine, UniProt P19120); assay: SPR, 25C pH 7.4
# HSC70 [2] = molecular target: T1, HSC70; assay: SPR, 25C pH 7.4; remark: listed apart in the source
# T1 sequence (P19120 2-650): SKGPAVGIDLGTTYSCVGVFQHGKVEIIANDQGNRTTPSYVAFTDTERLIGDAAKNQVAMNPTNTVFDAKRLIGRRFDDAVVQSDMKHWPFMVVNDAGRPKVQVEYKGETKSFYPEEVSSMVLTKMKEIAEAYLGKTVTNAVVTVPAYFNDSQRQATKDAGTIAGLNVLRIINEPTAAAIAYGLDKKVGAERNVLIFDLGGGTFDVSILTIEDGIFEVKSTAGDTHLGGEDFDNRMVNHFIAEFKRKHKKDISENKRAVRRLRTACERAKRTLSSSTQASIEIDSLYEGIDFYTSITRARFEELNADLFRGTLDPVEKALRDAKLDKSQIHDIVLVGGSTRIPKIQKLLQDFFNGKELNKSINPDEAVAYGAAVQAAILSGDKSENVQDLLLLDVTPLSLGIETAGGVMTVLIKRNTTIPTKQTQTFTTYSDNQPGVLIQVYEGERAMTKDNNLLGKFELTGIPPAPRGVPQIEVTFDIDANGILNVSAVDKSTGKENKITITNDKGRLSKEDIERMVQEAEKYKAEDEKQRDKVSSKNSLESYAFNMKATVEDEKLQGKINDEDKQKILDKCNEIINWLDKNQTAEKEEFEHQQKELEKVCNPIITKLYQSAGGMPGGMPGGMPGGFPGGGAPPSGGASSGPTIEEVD
Kd (HSC70 [1]),Kd (HSC70 [2]),Binder
1.91 µM,–,RIH[Met(O)]VYSKR[pS]GKPRGYAFIEY [P140(MO)]
–,6.94 µM,RIHMVYSKR[pS]GKPRGYAFIEY [P140]
